This is an account of results in the supplement of paper PMC12042874.

± gives the uncertainty stated by the source.

A short description of the series: amyloid nucleation score (Sup35N fusion, yeast selection) (log enrichment); library NNK2; higher = more nucleation; inactive = no reads after selection. An outline of the steps:
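Yeast lacking psi expressed peptides of 20 random codons fused to Sup35N, received 100 μM copper sulfate for 24 hours, and were then grown for 7 days at 30°C on medium lacking adenine and uracil. Illumina sequencing of input and output plasmid inserts provided the reads. Nucleation scores are DiMSum log enrichments of output over input, centred on the mode of non-aggregating sequences. Any sequence with under 100 input reads was excluded.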
RITPFWYQRIYRIMY displayed an amyloid nucleation score of -0.339 ± 0.22. Then RIVGDLICDVSSSQISTSHT, with -0.291 ± 0.48; and RIWKWLLTQICFIRAQPLM, with 0.49 ± 0.31; and RKATQIPMSVSMER, with 1.45 ± 0.4. Turning to RKCAPMDASSRHADSYPSQS, the amyloid nucleation score is 1.24 ± 0.19. In the case of RKKMGFF, the amyloid nucleation score entry was “inactive”. Turning to RKLGNLLPPEY, the amyloid nucleation score worked out at 0.499 ± 0.35. Regarding RKLIYSICKYVFALSVTIVG, the amyloid nucleation score is -1.3 ± 0.32. In turn, RKNVYFIFPIISSLYKV gave an amyloid nucleation score of 7.009 ± 0.049. As to RKPMLFLRYF, the amyloid nucleation score entry was “inactive”. For the substance RKPRFIACMTSPCLALC, the amyloid nucleation score was 0.066 ± 0.5.

As for RKSYGRSWSSGNLYYNLHGD, the amyloid nucleation score is -1.18 ± 1.1. Then RKVLLVGCCPLVLKIVFCSV, with 7.734 ± 0.048; and RKVLLVNVLGSDEDTHLTRV, with -0.973 ± 0.76; and RLDWREVHWLVRKTLL, with 0.648 ± 0.16.

RLDYNSSCQIFLFAGFMYLF showed an amyloid nucleation score of 3.23 ± 0.067. For RLFANASGVDMEGTGYNRSD the value was 0.359 ± 0.4; for RLFTWIFPTGNTGF, 8.831 ± 0.074.

Take RLIACIRIVSVVVNAVSLKG: the amyloid nucleation score came out at 1.79 ± 0.42.

RLKGGFVEGPSGRVTCVRIT displayed an amyloid nucleation score of 0.132 ± 0.38. Then RLKVVLRYLASGHWKLVA, with 1.31 ± 0.41. For RLKWKLEQNSSLLWGRYRTA the value was 1.24 ± 0.14; for RLKYHWGGFEA, 0.767 ± 0.4; for RLLAGIFLEEKFYPRPSDIL, 3.69 ± 0.13. Then RLLWLPLHSFMGMDTPSGVY, with 0.448 ± 0.6; and RLMHGRIRPLNSKWLTGLG, with 1.11 ± 0.34. Turning to RLMTVI, the amyloid nucleation score was -0.229 ± 0.28. Then RLNIGLLSVGYR, with 1.76 ± 0.17; and RLPFYVW, with “inactive”. RLQRVLS gave an amyloid nucleation score of -0.458 ± 0.42. For RLSCDTVFMMSFGIICSFFN the value was 4.418 ± 0.039; for RLWYSSSVLLV, 0.709 ± 0.36. For RMCMAIKERSY the value was 0.508 ± 0.38; for RMFIVHSCSTWLTNNGLNHM, 5.318 ± 0.036; for RMLCLTSG, -0.59 ± 0.63. With RMLGALFGMHVNYRAVSELF, the amyloid nucleation score came out at 1.49 ± 0.12. RMLGFD returned an amyloid nucleation score of -0.147 ± 1.1. For RMMVGALAGFMV the value was 0.578 ± 0.35; for RMPFHVFRIKFHFLLRVPIQ, 0.851 ± 0.52. In turn, RMRQASEAKSLGGPIGRQGL returned an amyloid nucleation score of 1.2 ± 0.15. Consider RNALLCADLTPLAPLNLFCD, for which the amyloid nucleation score is -0.636 ± 0.76. Then RNFFPHGFWSLQTKYNVLFM, with 5.684 ± 0.05; and RNFMVDRSGWQSKYVTHSLE, with -0.324 ± 0.6; and RNGLRTLEQRRSKSVWEMSW, with 0.969 ± 0.16. For RNILPLARDSVVFNDCYDSG the value was 0.545 ± 0.33; for RNIQYVAMEVCDFKFPVDGV, 0.223 ± 0.26. Then RNLDFIA, with 3.33 ± 0.068. Substance RNLGSCY displayed an amyloid nucleation score of -0.08 ± 0.46. For RNRAENV the value was -0.36 ± 0.76. For RNSMGTFSRWYPIMY the value was -0.54 ± 0.48. As to RNSSVGT, the amyloid nucleation score entry is “inactive”. Consider RNSYALNINEM, for which the amyloid nucleation score is -0.4 ± 0.38. In turn, RNTYRRGGLPFVAYNRTSVG came in with an amyloid nucleation score of 0.125 ± 0.28.

Take RNWWGLSVYNSIYWCVMSRD: the amyloid nucleation score worked out at 4.835 ± 0.043. On to RPKSKADYGWC, for which the amyloid nucleation score was -0.119 ± 0.45. Then RPNDMHTT, with -0.064 ± 0.26. Then RPRVVTQLFMYLNDCRGSPP, with 6.693 ± 0.055; and RPSNKT, with 0.761 ± 0.56; and RPVSSFVSASGSRSGLQSLK, with 0.085 ± 0.8. Then RQRVMHAHHCLLYLMVKHFI, with -0.675 ± 1.1; and RQTGRLDFRTISRVKVDVIV, with 1.92 ± 0.28. In turn, RQYFNVLDCWGIGVFGHKG yielded an amyloid nucleation score of 1.34 ± 0.3. For RRAGNIVLECSG the value was 3.68 ± 0.11. For RRAVLVSPGVVNQGISKHQG the value was 0.632 ± 0.25; for RRFEPKVRKKHQGLFLWYSV, 0.028 ± 0.25; for RRFVLARVPNNKCPQTIRLD, 0.733 ± 0.48. Take RRHSNRICLQLWNHLGKRCR: the amyloid nucleation score is 0.587 ± 0.29.

For the substance RRIFYHEYHMRDSIH, the amyloid nucleation score was 1.7 ± 0.1. RRLLGRLFLGTTSKLYVGDL came in with an amyloid nucleation score of -0.147 ± 0.26. With RRRCYHTVSKFRWNIQSAVT, the amyloid nucleation score is -0.337 ± 1. Then RRWVG, with 0.015 ± 0.45. Then RSARDYSVLKSRILSSAGLG, with 1.32 ± 0.39. The substance RSAYNY returned an amyloid nucleation score of -0.844 ± 0.4. For RSCYNFGKGLCVFMTLARLW the value was -0.82 ± 0.48; for RSELLRRKGILMYLLPGGGY, 0.009 ± 0.61.

For RSHAT, the amyloid nucleation score worked out at 0.579 ± 0.33. For RSKLFVISNGRRMHVVLSST the value was 0.605 ± 0.51; for RSKLNIDV, 1.95 ± 0.14. In the case of RSKMNRLMVLRSRVRWWYNE, the amyloid nucleation score is 0.485 ± 0.32. Substance RSLGTRAFAVRFRTSCWINV yielded an amyloid nucleation score of -0.317 ± 0.46. RSLSNMCN displayed an amyloid nucleation score of -1.24 ± 1. In turn, RSLVDLMRGFDIV came in with an amyloid nucleation score of 5.62 ± 0.062. Then RSMISRAIYWQSWSTREERT, with 1.86 ± 0.093. For RSNFIQDSLSYFDILAIRRG the value was “inactive”. RSQTSWLKDLWQRSLTSDCS returned an amyloid nucleation score of 4.62 ± 0.059. Substance RSRAQQHSQHNTVDITPTRS showed an amyloid nucleation score of 0.194 ± 0.32.

RSRDRGRCWFMMSRGMGGVA: the amyloid nucleation score was 0.483 ± 0.56.

For RSRSYHADWACTVVCLCYS, the amyloid nucleation score stood at 4.24 ± 0.066. Substance RSSGLIGLGWKQI came in with an amyloid nucleation score of -1.67 ± 0.75. Consider RSTTM, for which the amyloid nucleation score result is “inactive”. For RSVLWSSMVGV the value was 1.39 ± 0.44; for RSYIRFGNYVHYDQLWLFGG, 3.04 ± 0.12; for RSYLVFYTRYLTFNGPSTKF, 7.79 ± 0.08. In turn, RTEEQ came in with an amyloid nucleation score of -0.254 ± 0.54.

In turn, RTFVVNQVEWDVYIWRSGSV came in with an amyloid nucleation score of 0.004 ± 0.56. On to RTFYFYGRHR, for which the amyloid nucleation score is -1.11 ± 1.1. Then RTGAMPSR, with 0.518 ± 0.51; and RTHPTCSVCVKLYPLGTPRR, with 2.38 ± 0.13; and RTMSNGSDVCFNNGMFHYLN, with -1.04 ± 0.76.

In the case of RTPPISMGKHNFVYVSSVCG, the amyloid nucleation score is -1.1 ± 0.36.

The substance RTRLYIDQRRKAFYPGLGFS registered an amyloid nucleation score of 0.347 ± 0.55. Then RTRRSSTGGRNEASGNRSAG, with 2.87 ± 0.13; and RTSAPVLRYSVCLNAKYSLG, with 0.683 ± 0.21. RTSHSLRWMVRPYRRADPMR came in with an amyloid nucleation score of 0.691 ± 0.54. For RTWSIFIASVKYVKV the value was -0.24 ± 0.74.
